Assay results: US20110014287A1 (ALLERGAN, published 2011)

Experiments:
[1] = molecular target: T1, silk fibroin, substantially sericin-depleted, from Bombyx mori silk (Bombyx mori, UniProt P05790 22-5263; P21828 17-262, limits assumed); experiment: HPLC of 23RGD extracted from rinsed silk hydrogel, peak area against a 23RGD standard curve
T1 construct: also called silk fibroin hydrogel; silk gel
Description: 23RGD-infused gels were studied to quantify the amount of 23RGD bound to the silk-hydrogel device as well as the quantity of free 23RGD which might be rinsed free of the device under relevant conditions. Briefly, samples of 23RGD-infused gel were cast and rinsed according to the methods above, with samples of rinse buffer being collected from each rinse for subsequent analysis by HPLC. Additionally, subsequent to the last rinse, the gel samples were mechanically pulverized by means of a stainless steel stirring rod and the adsorbed 23RGD removed by incubation for 4 hours in a dissolving buffer. This mixture of gel and solvent was then centrifuged on an Eppendorf 5415C at 16,000 g RCF for 30 minutes. The supernatant was collected and centrifuged another 30 minutes at 16,000 g RCF after which time the supernatant was collected in a sample vial for HPLC analysis. Samples of rinse buffer from the first and last rinse were centrifuged in the same fashion after being diluted with the same solvent the gel was extracted with in a volumetric ratio of 1 part rinse buffer to 4 parts solvent. To ensure 23RGD-hydrogel device rinse-exposed surface area was not a limiting factor, the same rinse and extraction process was performed upon devices pulverized after gelation and before rinsing.

[2] = molecular target: T1, silk fibroin, substantially …; experiment: HPLC of 23RGD extracted from lyophilized silk precipitate, against standard curve; RHI formulation
Method: (§1) The amount of 23RGD bound to silk precipitates was quantified by analyzing lyophilized samples. The 23RGD was removed by incubating the samples for 4 hours in a dissolving buffer, then centrifuging on an Eppendorf 5415C (Eppendorf North America Inc., Westbury, N.Y.) at 16,000 g (RCF) for 30 minutes and the supernatant collected. This supernatant was then centrifuged in identical fashion and the final supernatant collected for HPLC analysis using a PerkinElmer Series 200 (PerkinElmer, Waltham, Mass.). The 23RGD peak areas from each curve were compared against a standard curve. 1-Way ANOVA was used to test for significant differences caused by changing silk concentration, 23RGD concentration, and accelerant volume. A Student's t-test was used to test the significance of differences resulting from altered ethanol concentrations.

[3] = molecular target: T1, silk fibroin, substantially …; experiment: HPLC of 23RGD extracted from lyophilized silk precipitate, against standard curve; AVLO formulation
Method: as §1

[4] = molecular target: T1, silk fibroin, substantially …; experiment: HPLC of 23RGD extracted from silk precipitates, across formulations
Method: as §1

[5] = molecular target: T1, silk fibroin, substantially …; experiment: HPLC of 23RGD extracted from lyophilized silk precipitate, against standard curve; SCVLO formulation
Method: as §1

[6] = molecular target: T1, silk fibroin, substantially …; experiment: HPLC of 23RGD extracted from lyophilized silk precipitate, against standard curve; BASE formulation
Method: as §1

[7] = molecular target: T1, silk fibroin, substantially …; experiment: HPLC of 23RGD extracted from lyophilized silk precipitate, against standard curve; formulation labelled RLO in this sentence
Method: as §1

[8] = molecular target: T1, silk fibroin, substantially …; experiment: HPLC of 23RGD extracted from lyophilized silk precipitate, against standard curve; AVHI formulation
Method: as §1

[9] = molecular target: T1, silk fibroin, substantially …; experiment: HPLC of 23RGD extracted from lyophilized silk precipitate, against standard curve; formulation labelled RMED in this sentence
Method: as §1

[10] = molecular target: T1, silk fibroin, substantially …; experiment: HPLC of 23RGD extracted from lyophilized silk precipitate, against standard curve; SCLO formulation
Method: as §1

GRGDIPASSKGGGGSRLLLLLLR (not fully specified; C-terminal -NH2 as printed (HOOC-GRGDIPASSKG4SRL6R-NH2), also called amphiphilic peptide) [23RGD peptide (HOOC-GRGDIPASSKG4SRL6R-NH2)]
23RGD:silk ratio bound to the gel [1]: 3.35 23RGD:silk ratio
23RGD:silk ratio bound to the precipitate [2]: 10.7 23RGD:silk ratio
23RGD:silk ratio bound to the precipitate [3]: 5.2 23RGD:silk ratio
apparent saturation 23RGD:silk ratio [4]: ~10 23RGD:silk ratio
23RGD:silk ratio bound to the precipitate [5]: 11 23RGD:silk ratio
23RGD:silk ratio bound to the precipitate [6]: 8.7 23RGD:silk ratio
23RGD:silk ratio bound to the precipitate [7]: 1.1 23RGD:silk ratio
23RGD:silk ratio bound to the precipitate [8]: 10.5 23RGD:silk ratio
23RGD:silk ratio bound to the precipitate [9]: 6.95 23RGD:silk ratio
23RGD:silk ratio bound to the precipitate [10]: 9.9 23RGD:silk ratio
